Assay results as given in patent US20050069530A1.

Molecular target: human type IIA sPLA2 (human) (UniProt P14555)
Assay: cell-based or functional assay

human type IIA sPLA2 (human), sequence (P14555 21-144): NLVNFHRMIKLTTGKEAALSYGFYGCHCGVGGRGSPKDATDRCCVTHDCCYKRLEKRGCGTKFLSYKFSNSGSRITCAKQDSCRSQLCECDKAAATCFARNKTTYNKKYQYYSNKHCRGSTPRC

Substance | IC50 of sPLA2 enzyme inhibition (3H-labelled E. coli membranes as substrate) [µM] | Mean % Inhibition at fixed peptide concentration [5 µM] [%]
D60, 65E-PIP (59-67) (peptide) | 4.2 | –
PIP (56-67) (peptide) | – | 34.2
PIP (57-67) (peptide) | – | 14.2
PIP (58-67) (peptide) | 3.67 | 59.5
PIP (59-67) (peptide) | 3.8 | 56.4
PIP (60-67) (peptide) | 5.75 | –
